Source: patent US12466853B2, “Selective targeting of apoptosis proteins by structurally-stabilized and/or cysteine-reactive NOXA peptides” (priority 2017, dated 2025)
Changes are numbered by the printed parent chain.

Legend:
His-BFL-1ΔC = molecular target: T1, His-BFL-1ΔC (Homo sapiens, UniProt Q16548); assay: Streptavidin pulldown from recombinant protein mixture, BFL-1; format: binding; details: equimolar mixture of recombinant MCL-1, BCL-XL, BFL-1 and biotinylated SAHB, silver stain
T1 construct: Recombinant anti-apoptotic BFL-1ΔC (aa 1-151) and its cysteine to serine mutants were cloned into PET17b; made in house; host or cells: Escherichia coli LOBSTR BL21(DE3)
T1 sequence (Q16548 1-151): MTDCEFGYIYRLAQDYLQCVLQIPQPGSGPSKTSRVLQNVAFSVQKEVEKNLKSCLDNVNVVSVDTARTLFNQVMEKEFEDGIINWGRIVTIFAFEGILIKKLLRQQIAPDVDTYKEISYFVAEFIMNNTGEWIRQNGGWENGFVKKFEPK
Method: WT His-BFL-1ΔC, BCL-XLΔC (tagless), and GST-MCL-1ΔNΔC (1 μM each) were combined and incubated with 3 mM DTT in PBS for thirty minutes at room temperature. Mixtures were treated with vehicle or the indicated C-terminally biotinylated NOXA SAHB (1 μM) for four hours and were then added to 30 μL PBS-washed high-capacity streptavidin (SA) agarose beads (Thermo Fisher Pierce) and incubated with rotation at room temperature for two hours. The beads were then washed three times with NP-40 lysis buffer (1% NP-40, 50 mM Tris pH 8, 100 mM NaCl, 2.5 mM MgCl2) and three times with PBS. To elute bound protein, beads were boiled for ten minutes with 10% SDS containing 10 mg/mL biotin. After elution, samples were boiled with 3×LDS and 2M DTT for twenty minutes. Gel electrophoresis using a 12% Bis-Tris gel was conducted on inputs (2%) and eluates (5 μL) and gels were developed using the Pierce silver staining kit (Thermo Fisher).

MCL-1 = molecular target: T2, MCL-1 (Homo sapiens, UniProt Q07820); assay: MCL-1 engagement in A375P lysates (streptavidin pulldown, MCL-1 western); format: binding; details: biotinylated SAHB
T2 construct: endogenous protein in lysates from the A375P melanoma cell line; endogenous in cells; host or cells: A375P melanoma cells (lysate)
Method: Cultured A375P and U937 cells were trypsinized or harvested, respectively, washed with PBS, and lysed by incubating with 1% CHAPS lysis buffer (1% CHAPS, 150 mM NaCl, 50 mM Tris pH 7.4, 100 μM DTT). The protein concentrations of the soluble fraction were measured using a BCA kit according to the manufacturer's instructions (Thermo Scientific). Lysate samples (1 mg) were incubated with vehicle or C-terminally biotinylated NOXA SAHBs (30 μM) overnight in 1% CHAPS lysis buffer at 4° C. Biotin capture was accomplished by incubating the mixture with high-capacity SA agarose (Thermo Scientific) for 2 hours at 4° C., followed by centrifugation and washing the pelleted beads three times with lysis buffer (1 mL). Bead-bound proteins were eluted by boiling in 10% SDS containing 10 mg/mL biotin for 10 minutes and then subjected to electrophoresis and western blotting using BFL-1 (Abcam, #125259) and MCL-1 (Rockland #600-401-394S) antibodies.

[1] = molecular target: T3, HA-BFL-1ΔC C4S/C19S / tBID (Homo sapiens, UniProt Q16548, C19S/C4S); assay: BFL-1/BH3 complex disruption: competition with tBID in 293T lysates; format: binding; details: anti-HA immunoprecipitation
T3 construct: Recombinant anti-apoptotic BFL-1ΔC (aa 1-151) and its cysteine to serine mutants were cloned into PET17b; expressed in transfected cells; host or cells: 293T (lysate)
T3 sequence (Q16548 1-151 C4S/C19S): T1 sequence (Q16548 1-151) with C4S, C19S
Method: (§1) To evaluate the capacity of biotinylated SAHBs to compete with tBID for interactions with BFL-1 and MCL-1, 293T cells were transfected with either HA-BFL-1ΔC C4S/C19S or FLAG-MCL-1 in the p3XFLAG-CMV-10 vector (Sigma) as above. After 24 hr, cells were trypsinized, washed with PBS, lysed in 1% CHAPS buffer, and the supernatant collected for protein concentration determination by BCA kit. Lysate samples (0.5 mg) were incubated with 0.25 μM recombinant tBID (R&D Systems) and 5 μM biotinylated NOXA SAHBs for 6 h at RT. The mixtures were then subjected to HA or FLAG immunoprecipitation, followed by western analysis using 1:1000 dilutions of HA (Sigma Aldrich, #12CA5), FLAG (Sigma-Aldrich, F7425), and BID (Santa Cruz sc-11423) antibodies.

FLAG-MCL-1 / tBID = molecular target: T4, FLAG-MCL-1 / tBID (Homo sapiens, UniProt Q07820); assay: MCL-1/tBID complex disruption in 293T lysates; format: binding; details: FLAG immunoprecipitation
T4 construct: expressed in transfected cells; host or cells: 293T (lysate)
T4 sequence (Q07820 whole entry): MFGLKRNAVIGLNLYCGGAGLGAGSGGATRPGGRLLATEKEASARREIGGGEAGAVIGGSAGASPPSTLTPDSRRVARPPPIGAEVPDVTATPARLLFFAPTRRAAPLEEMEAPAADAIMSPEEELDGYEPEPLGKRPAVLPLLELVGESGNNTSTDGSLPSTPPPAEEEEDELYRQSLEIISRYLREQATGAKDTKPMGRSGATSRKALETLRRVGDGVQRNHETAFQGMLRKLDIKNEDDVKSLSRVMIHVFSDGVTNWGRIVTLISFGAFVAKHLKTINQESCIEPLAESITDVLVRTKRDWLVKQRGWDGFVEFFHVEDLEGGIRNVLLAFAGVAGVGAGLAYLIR
Method: as §1

[2] = molecular target: T5, BFL-1ΔC C4S/C19S / FITC-BID BH3 (Homo sapiens, UniProt Q16548, C19S/C4S); assay: Competitive fluorescence polarization binding assay, BFL-1ΔC C4S/C19S; details: fluorescence polarization competition
T5 construct: Recombinant anti-apoptotic BFL-1ΔC (aa 1-151) and its cysteine to serine mutants were cloned into PET17b; made in house; host or cells: Escherichia coli LOBSTR BL21(DE3)
T5 sequence (Q16548 1-151 C4S/C19S): T1 sequence (Q16548 1-151) with C4S, C19S
Method: (§2) Fluorescence polarization (FP) assays were performed as previously described (Pitter et al., 2008 (supra)). Briefly, direct binding curves were first generated by FITC-BID BH3 (25 nM) with serial dilutions of anti-apoptotic protein, and FP was measured at 5 min on a SpectraMax M5 microplate reader (Molecular Devices). For competition assays, a serial dilution of acetylated or warhead-bearing NOXA SAHB was added to the indicated recombinant protein at ˜EC75 concentration, as determined by the direct binding assay. FITC-BID BH3 (25 nM) was then added and fluorescence polarization was measured at equilibrium. IC50 values were calculated by nonlinear regression analysis of competitive binding curves using PRISM software (GraphPad).

[3] = molecular target: T6, BFL-1ΔC C4S/C19S/C55S / FITC-BID BH3 (Homo sapiens, UniProt Q16548, C19S/C4S/C55S); assay: Competitive fluorescence polarization binding assay, BFL-1ΔC C4S/C19S/C55S
T6 construct: Recombinant anti-apoptotic BFL-1ΔC (aa 1-151) and its cysteine to serine mutants were cloned into PET17b; hexahistidine (N); made in house; host or cells: Escherichia coli LOBSTR BL21(DE3)
T6 sequence (Q16548 1-151 C4S/C19S/C55S): T1 sequence (Q16548 1-151) with C4S, C19S, C55S
Method: as §2

U937 cells = assay: Cell viability (CellTiter-Glo) and CalcuSyn synergy, U937; details: U937 cells (BFL-1-dependent)
Method: (§3) Cell viability and caspase-3/7 activation was measured using CellTiter-Glo and Caspase-Glo 3/7 chemiluminescence reagents (Promega), respectively, and luminescence was detected by a Spectramax M5 microplate reader. Synergy of drug interactions was calculated using the CalcuSyn software (Biosoft).

MV4;11 cells = assay: Cell viability (CellTiter-Glo) and CalcuSyn synergy, MV4;11; details: MV4;11 cells (not dependent on BFL-1, dependent on MCL-1)
Method: as §3

JAT8LREFGDXLNFRQ [D-NA-NOXA-15 R31E]
BFL-1 binding / pull down (His-BFL-1ΔC): striking competitive advantage for BFL-1 targeting over its acetylated counterpart | MCL-1 engagement (MCL-1): approximately equivalent binding to MCL-1 | competition with tBID for HA-BFL-1ΔC C4S/C19S interaction [1]: effectively competes with tBID | dissociation of FLAG-MCL-1/tBID interaction (FLAG-MCL-1 / tBID): neither D-NA- nor Ac-NOXA15 R31E is able to dissociate the interaction | disruption of BFL-1ΔC C4S/C19S / FITC-BID BH3 interaction [2]: displays the ability to disrupt the interaction | competition for FITC-BID BH3 binding to BFL-1ΔC C4S/C19S/C55S [3]: neither D-NA- nor Ac-NOXA15 R31E competes | cytotoxicity, single agent (U937 cells; listed as D-NA-NOXA SAHB-15 R31E): responsive | cytotoxicity, single agent (U937 cells; listed as NOXA-15 R31E SAHB): selective cytotoxicity | cytotoxicity, single agent (MV4;11 cells): essentially insensitive
